FireProtDB (doi:10.1111/j.1432-1033.1993.tb17904.x)

Conditions: Carica papaya, Thermal, DSC, glycine-HCl 5 mM, reversible: yes

Sequence of Chymopapain wild type, P14080 (P14080 whole entry): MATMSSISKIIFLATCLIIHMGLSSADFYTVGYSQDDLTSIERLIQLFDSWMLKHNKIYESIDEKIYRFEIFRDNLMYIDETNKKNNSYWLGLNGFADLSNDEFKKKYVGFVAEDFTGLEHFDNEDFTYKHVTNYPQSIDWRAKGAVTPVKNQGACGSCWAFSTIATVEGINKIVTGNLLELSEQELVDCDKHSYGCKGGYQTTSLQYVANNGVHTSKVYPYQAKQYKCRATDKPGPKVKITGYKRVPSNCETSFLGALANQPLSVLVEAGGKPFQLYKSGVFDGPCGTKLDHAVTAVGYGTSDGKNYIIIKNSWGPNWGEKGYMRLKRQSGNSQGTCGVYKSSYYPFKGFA

Chymopapain wild type, P14080
Tm (pH 1.9): 69.3 °C
unfolding enthalpy (calorimetric) (pH 1.9): 147 kcal/mol
unfolding enthalpy (van 't Hoff) (pH 1.9): 88.3 kcal/mol
Tm (pH 2.4): 71.6 °C
unfolding enthalpy (calorimetric) (pH 2.4): 154 kcal/mol
unfolding enthalpy (van 't Hoff) (pH 2.4): 87.9 kcal/mol
Tm (pH 2.9): 78.3 °C
unfolding enthalpy (calorimetric) (pH 2.9): 175 kcal/mol
unfolding enthalpy (van 't Hoff) (pH 2.9): 95.2 kcal/mol
Tm (pH 3.5): 85.8 °C
unfolding enthalpy (calorimetric) (pH 3.5): 232 kcal/mol
unfolding enthalpy (van 't Hoff) (pH 3.5): 125 kcal/mol
